This is an account of results in article PMC4498328.

The target of assay [1] is Barley yellow dwarf virus-GPV readthrough protein (RTP), AcGFP1 fusion (Barley yellow dwarf virus-GPV). In words: co-IP; chemiluminescent Co-IP: pAcGFP1-bait and pProLabel-prey cotransfected into HEK293 cells, lysed after 48 h, anti-GFP polyclonal antibody and protein A/G agarose beads, ProLabel activity read as relative light units; negative control pAcGFP1-Lam/pProLabel-T.

Assay [2] deals with Barley yellow dwarf virus-GPV coat protein (CP), AcGFP1 fusion (Barley yellow dwarf virus-GPV). Described as above.

In assay [1], “cytochrome c oxidase polypeptide IV-like, ProLabel fusion (natural protein)” gave a relative strength of the interaction against the negative control (times the negative control) of 4.2.

In the case of “nascent polypeptide-associated complex subunit alpha, ProLabel fusion (natural protein)”, the relative strength of the interaction against the negative control (times the negative control) was determined as 1.6 in assay [2] and 4.9 in assay [1].

The substance “twinstar, ProLabel fusion (natural protein)” registered a relative strength of the interaction against the negative control (times the negative control) in assay [1] of 7.1.

Take “complexin, ProLabel fusion (natural protein)”: the relative strength of the interaction against the negative control (times the negative control) in assay [1] came to 5.6.

In assay [1], “tropomyosin, ProLabel fusion (natural protein)” displayed a relative strength of the interaction against the negative control (times the negative control) of 8.7.

For the substance “pancreatic lipase-related protein, ProLabel fusion (natural protein)”, the relative strength of the interaction against the negative control (times the negative control) in assay [2] came to 3; in assay [1] it was 23.

“cytochrome P450 4g15, ProLabel fusion (natural protein)” yielded a relative strength of the interaction against the negative control (times the negative control) in assay [1] of 3.4.
